This note sets out measurements from patent publication US20130210709A1 (ANCHOR THERAPEUTICS, published 2013).

Ends that are not written are not given here. * marks the point of attachment. Palmitoyl = CCCCCCCCCCCCCCCC(=O)*

B1: CXCR4 i2 loop compound 81 (peptide)
peptide: Palmitoyl-HATNSQRPRKLLAE-NH2
SMILES: CCCCCCCCCCCCCCCC(=O)N[C@@H](Cc1c[nH]cn1)C(=O)N[C@@H](C)C(=O)N[C@H](C(=O)N[C@@H](CC(N)=O)C(=O)N[C@@H](CO)C(=O)N[C@@H](CCC(N)=O)C(=O)N[C@@H](CCCNC(=N)N)C(=O)N1CCC[C@H]1C(=O)N[C@@H](CCCNC(=N)N)C(=O)N[C@@H](CCCCN)C(=O)N[C@@H](CC(C)C)C(=O)N[C@@H](CC(C)C)C(=O)N[C@@H](C)C(=O)N[C@@H](CCC(=O)O)C(N)=O)[C@@H](C)O
B2: CXCR4 i2 loop compound 83 (peptide)
peptide: Palmitoyl-HATNSQRPRKLLAEKV-NH2
SMILES: CCCCCCCCCCCCCCCC(=O)N[C@@H](Cc1c[nH]cn1)C(=O)N[C@@H](C)C(=O)N[C@H](C(=O)N[C@@H](CC(N)=O)C(=O)N[C@@H](CO)C(=O)N[C@@H](CCC(N)=O)C(=O)N[C@@H](CCCNC(=N)N)C(=O)N1CCC[C@H]1C(=O)N[C@@H](CCCNC(=N)N)C(=O)N[C@@H](CCCCN)C(=O)N[C@@H](CC(C)C)C(=O)N[C@@H](CC(C)C)C(=O)N[C@@H](C)C(=O)N[C@@H](CCC(=O)O)C(=O)N[C@@H](CCCCN)C(=O)N[C@H](C(N)=O)C(C)C)[C@@H](C)O
B3: CXCR4 i2 loop compound 82 (peptide)
peptide: Palmitoyl-HATNSQRPRKLLAEK-NH2
SMILES: CCCCCCCCCCCCCCCC(=O)N[C@@H](Cc1c[nH]cn1)C(=O)N[C@@H](C)C(=O)N[C@H](C(=O)N[C@@H](CC(N)=O)C(=O)N[C@@H](CO)C(=O)N[C@@H](CCC(N)=O)C(=O)N[C@@H](CCCNC(=N)N)C(=O)N1CCC[C@H]1C(=O)N[C@@H](CCCNC(=N)N)C(=O)N[C@@H](CCCCN)C(=O)N[C@@H](CC(C)C)C(=O)N[C@@H](CC(C)C)C(=O)N[C@@H](C)C(=O)N[C@@H](CCC(=O)O)C(=O)N[C@@H](CCCCN)C(N)=O)[C@@H](C)O
B4: CXCR4 i4 loop compound 112 (peptide)
peptide: Palmitoyl-GAKFKTSAQHALTSVSRGSSLKILSGGK-NH2
SMILES: CCCCCCCCCCCCCCCC(=O)NCC(=O)N[C@@H](C)C(=O)N[C@@H](CCCCN)C(=O)N[C@@H](Cc1ccccc1)C(=O)N[C@@H](CCCCN)C(=O)N[C@H](C(=O)N[C@@H](CO)C(=O)N[C@@H](C)C(=O)N[C@@H](CCC(N)=O)C(=O)N[C@@H](Cc1c[nH]cn1)C(=O)N[C@@H](C)C(=O)N[C@@H](CC(C)C)C(=O)N[C@H](C(=O)N[C@@H](CO)C(=O)N[C@H](C(=O)N[C@@H](CO)C(=O)N[C@@H](CCCNC(=N)N)C(=O)NCC(=O)N[C@@H](CO)C(=O)N[C@@H](CO)C(=O)N[C@@H](CC(C)C)C(=O)N[C@@H](CCCCN)C(=O)N[C@H](C(=O)N[C@@H](CC(C)C)C(=O)N[C@@H](CO)C(=O)NCC(=O)NCC(=O)N[C@@H](CCCCN)C(N)=O)[C@@H](C)CC)C(C)C)[C@@H](C)O)[C@@H](C)O
B5: CXCR4 i4 loop compound 109 (peptide)
peptide: Palmitoyl-GAKFKTSAQHALTSVSRGSSLKILSKGKRGGHSSVST-NH2
SMILES: CCCCCCCCCCCCCCCC(=O)NCC(=O)N[C@@H](C)C(=O)N[C@@H](CCCCN)C(=O)N[C@@H](Cc1ccccc1)C(=O)N[C@@H](CCCCN)C(=O)N[C@H](C(=O)N[C@@H](CO)C(=O)N[C@@H](C)C(=O)N[C@@H](CCC(N)=O)C(=O)N[C@@H](Cc1c[nH]cn1)C(=O)N[C@@H](C)C(=O)N[C@@H](CC(C)C)C(=O)N[C@H](C(=O)N[C@@H](CO)C(=O)N[C@H](C(=O)N[C@@H](CO)C(=O)N[C@@H](CCCNC(=N)N)C(=O)NCC(=O)N[C@@H](CO)C(=O)N[C@@H](CO)C(=O)N[C@@H](CC(C)C)C(=O)N[C@@H](CCCCN)C(=O)N[C@H](C(=O)N[C@@H](CC(C)C)C(=O)N[C@@H](CO)C(=O)N[C@@H](CCCCN)C(=O)NCC(=O)N[C@@H](CCCCN)C(=O)N[C@@H](CCCNC(=N)N)C(=O)NCC(=O)NCC(=O)N[C@@H](Cc1c[nH]cn1)C(=O)N[C@@H](CO)C(=O)N[C@@H](CO)C(=O)N[C@H](C(=O)N[C@@H](CO)C(=O)N[C@H](C(N)=O)[C@@H](C)O)C(C)C)[C@@H](C)CC)C(C)C)[C@@H](C)O)[C@@H](C)O
B6: CXCR4 i4 loop compound 110 (peptide)
peptide: Palmitoyl-GAKFKTSAQHALTSVSRGSSLKILSKGKRGGSCFH-NH2
SMILES: CCCCCCCCCCCCCCCC(=O)NCC(=O)N[C@@H](C)C(=O)N[C@@H](CCCCN)C(=O)N[C@@H](Cc1ccccc1)C(=O)N[C@@H](CCCCN)C(=O)N[C@H](C(=O)N[C@@H](CO)C(=O)N[C@@H](C)C(=O)N[C@@H](CCC(N)=O)C(=O)N[C@@H](Cc1c[nH]cn1)C(=O)N[C@@H](C)C(=O)N[C@@H](CC(C)C)C(=O)N[C@H](C(=O)N[C@@H](CO)C(=O)N[C@H](C(=O)N[C@@H](CO)C(=O)N[C@@H](CCCNC(=N)N)C(=O)NCC(=O)N[C@@H](CO)C(=O)N[C@@H](CO)C(=O)N[C@@H](CC(C)C)C(=O)N[C@@H](CCCCN)C(=O)N[C@H](C(=O)N[C@@H](CC(C)C)C(=O)N[C@@H](CO)C(=O)N[C@@H](CCCCN)C(=O)NCC(=O)N[C@@H](CCCCN)C(=O)N[C@@H](CCCNC(=N)N)C(=O)NCC(=O)NCC(=O)N[C@@H](CO)C(=O)N[C@@H](CS)C(=O)N[C@@H](Cc1ccccc1)C(=O)N[C@@H](Cc1c[nH]cn1)C(N)=O)[C@@H](C)CC)C(C)C)[C@@H](C)O)[C@@H](C)O
B7: CXCR4 i4 loop compound 107 (peptide)
peptide: GAKFKTSAQHALTSVSRGSSLKILSKGKRGGHSSVST-NH2
modifications: not fully specified (N-terminus); also: dual lipid, backbone lipid not given here
B8: CXCR4 i4 loop compound 116 (peptide)
peptide: Palmitoyl-GAKFKTSAQHALTSVR-NH2
SMILES: CCCCCCCCCCCCCCCC(=O)NCC(=O)N[C@@H](C)C(=O)N[C@@H](CCCCN)C(=O)N[C@@H](Cc1ccccc1)C(=O)N[C@@H](CCCCN)C(=O)N[C@H](C(=O)N[C@@H](CO)C(=O)N[C@@H](C)C(=O)N[C@@H](CCC(N)=O)C(=O)N[C@@H](Cc1c[nH]cn1)C(=O)N[C@@H](C)C(=O)N[C@@H](CC(C)C)C(=O)N[C@H](C(=O)N[C@@H](CO)C(=O)N[C@H](C(=O)N[C@@H](CCCNC(=N)N)C(N)=O)C(C)C)[C@@H](C)O)[C@@H](C)O
B9: CXCR4 i4 loop compound 114 (peptide)
peptide: Palmitoyl-GAKFKTSAQHALTSVSRGSSLKILSK-NH2
SMILES: CCCCCCCCCCCCCCCC(=O)NCC(=O)N[C@@H](C)C(=O)N[C@@H](CCCCN)C(=O)N[C@@H](Cc1ccccc1)C(=O)N[C@@H](CCCCN)C(=O)N[C@H](C(=O)N[C@@H](CO)C(=O)N[C@@H](C)C(=O)N[C@@H](CCC(N)=O)C(=O)N[C@@H](Cc1c[nH]cn1)C(=O)N[C@@H](C)C(=O)N[C@@H](CC(C)C)C(=O)N[C@H](C(=O)N[C@@H](CO)C(=O)N[C@H](C(=O)N[C@@H](CO)C(=O)N[C@@H](CCCNC(=N)N)C(=O)NCC(=O)N[C@@H](CO)C(=O)N[C@@H](CO)C(=O)N[C@@H](CC(C)C)C(=O)N[C@@H](CCCCN)C(=O)N[C@H](C(=O)N[C@@H](CC(C)C)C(=O)N[C@@H](CO)C(=O)N[C@@H](CCCCN)C(N)=O)[C@@H](C)CC)C(C)C)[C@@H](C)O)[C@@H](C)O
B10: CXCR4 i4 loop compound 115 (peptide)
peptide: Palmitoyl-GAKFKTSAQHALTSVSRGSSLK-NH2
SMILES: CCCCCCCCCCCCCCCC(=O)NCC(=O)N[C@@H](C)C(=O)N[C@@H](CCCCN)C(=O)N[C@@H](Cc1ccccc1)C(=O)N[C@@H](CCCCN)C(=O)N[C@H](C(=O)N[C@@H](CO)C(=O)N[C@@H](C)C(=O)N[C@@H](CCC(N)=O)C(=O)N[C@@H](Cc1c[nH]cn1)C(=O)N[C@@H](C)C(=O)N[C@@H](CC(C)C)C(=O)N[C@H](C(=O)N[C@@H](CO)C(=O)N[C@H](C(=O)N[C@@H](CO)C(=O)N[C@@H](CCCNC(=N)N)C(=O)NCC(=O)N[C@@H](CO)C(=O)N[C@@H](CO)C(=O)N[C@@H](CC(C)C)C(=O)N[C@@H](CCCCN)C(N)=O)C(C)C)[C@@H](C)O)[C@@H](C)O

T1 sequence (P61073 whole entry): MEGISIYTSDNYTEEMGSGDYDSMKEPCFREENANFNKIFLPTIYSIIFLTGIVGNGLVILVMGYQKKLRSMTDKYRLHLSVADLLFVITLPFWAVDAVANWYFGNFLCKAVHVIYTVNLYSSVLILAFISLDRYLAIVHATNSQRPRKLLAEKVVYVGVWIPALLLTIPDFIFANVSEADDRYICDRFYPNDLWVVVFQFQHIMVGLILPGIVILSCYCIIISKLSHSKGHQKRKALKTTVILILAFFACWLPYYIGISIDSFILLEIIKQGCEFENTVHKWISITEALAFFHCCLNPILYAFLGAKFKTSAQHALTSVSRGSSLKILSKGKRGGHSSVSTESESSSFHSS

The first test addresses T1, CXCR4 receptor (human, UniProt P61073 1-352). Description: cell-based or functional assay.
In the case of B1, the “AUC (% of vehicle), chemotaxis, SUPB-15, 1.0 uM” value (shortened to “AUC (% of vehicle), chemotaxis”) is 79.8 % of vehicle; the “Max (% of vehicle), chemotaxis, SUPB-15, 1.0 uM” value (from here on “Max (% of vehicle), chemotaxis”) was 76.5 % of vehicle; the “Peak Ratio, chemotaxis, SUPB-15, 1.0 uM” value is 0.2.
Take B2: the “AUC (% of vehicle), chemotaxis” value is 126 % of vehicle; the “Max (% of vehicle), chemotaxis” value is 110 % of vehicle; the “Peak Ratio, chemotaxis, SUPB-15, 1.0 uM” value worked out at 1.
For B3, the “AUC (% of vehicle), chemotaxis” value was 125 % of vehicle; the “Max (% of vehicle), chemotaxis” value is 126 % of vehicle; the “Peak Ratio, chemotaxis, SUPB-15, 1.0 uM” value came to 0.2.

Another test concerns the target T1, CXCR4 receptor. Kind of test: cell-based or functional assay. This is another data set of the same source.
With B4, the “AUC (% of Vehicle), CHTX, CEM, 1.0 uM” value is 48.9 % of Vehicle; the “Max (% of Vehicle), CHTX, CEM, 1.0 uM” value was 54.7 % of Vehicle; the “Peak Ratio, CHTX, CEM, 1.0 uM” value was determined as 0.2.
Consider B5, for which the “AUC (% of Vehicle), CHTX, CEM, 1.0 uM” value is 49.3 % of Vehicle; the “Max (% of Vehicle), CHTX, CEM, 1.0 uM” value is 49.8 % of Vehicle; the “Peak Ratio, CHTX, CEM, 1.0 uM” value was determined as 0.04.
As for B6, the “AUC (% of Vehicle), CHTX, CEM, 1.0 uM” value was 41 % of Vehicle; the “Max (% of Vehicle), CHTX, CEM, 1.0 uM” value was 42.1 % of Vehicle; the “Peak Ratio, CHTX, CEM, 1.0 uM” value came out at 1.
In the case of GAKFKTSAQHALTSVSRGSSLKILSKGKRG-NH2 (not fully specified (N-terminus)) [CXCR4 i4 loop compound 108], the “AUC (% of Vehicle), CHTX, CEM, 1.0 uM” value was 89.5 % of Vehicle; the “Max (% of Vehicle), CHTX, CEM, 1.0 uM” value is 83.9 % of Vehicle; the “Peak Ratio, CHTX, CEM, 1.0 uM” value was 5.
Turning to B7, the “AUC (% of Vehicle), CHTX, CEM, 1.0 uM” value is 57.3 % of Vehicle; the “Max (% of Vehicle), CHTX, CEM, 1.0 uM” value was 49.5 % of Vehicle; the “Peak Ratio, CHTX, CEM, 1.0 uM” value was determined as 5.
On to B8, for which the “AUC (% of Vehicle), CHTX, CEM, 1.0 uM” value is 65.3 % of Vehicle; the “Max (% of Vehicle), CHTX, CEM, 1.0 uM” value was 80.5 % of Vehicle; the “Peak Ratio, CHTX, CEM, 1.0 uM” value was 1.
Consider B9, for which the “AUC (% of Vehicle), CHTX, CEM, 1.0 uM” value is 34.2 % of Vehicle; the “Max (% of Vehicle), CHTX, CEM, 1.0 uM” value was 63.1 % of Vehicle; the “Peak Ratio, CHTX, CEM, 1.0 uM” value worked out at 1.
As to B10, the “AUC (% of Vehicle), CHTX, CEM, 1.0 uM” value is 77.5 % of Vehicle; the “Max (% of Vehicle), CHTX, CEM, 1.0 uM” value is 92.1 % of Vehicle; the “Peak Ratio, CHTX, CEM, 1.0 uM” value is 1.
